Data from patent publication US6979673 (University of Pennsylvania, dated 2005).

B2: myc-tagged PRL (recombinant human prolactin from Drosophila S2 cells) (ligand, UniProt P01236 29-227, looked up, not shown: small tags and cut ends)
chain: LPICPGGAARCQVTLRDLFDRAVVLSHYIHNLSSEMFSEFDKRYTHGRGFITKAINSCHTSSLATPEDKEQAQQMNQKDFLSLIVSILRSWNEPLYHLVTEVRGMQEAPEAILSKAVEIEEQTKRLLEGMELIVSQVHPETKENEIYPVWSGLPSLQMADEESRLSAYYNLLHCLRRDSHKIDNYLKLLKCRIIHNNNC
notes: mature

Tests used:
[1] = molecular target: T1, PRL (human prolactin, untagged or form not specified: serum PRL; PRL added to cell cultures) (human, UniProt P01236 29-227); assay: cell-based or functional assay
T1 sequence (looked up): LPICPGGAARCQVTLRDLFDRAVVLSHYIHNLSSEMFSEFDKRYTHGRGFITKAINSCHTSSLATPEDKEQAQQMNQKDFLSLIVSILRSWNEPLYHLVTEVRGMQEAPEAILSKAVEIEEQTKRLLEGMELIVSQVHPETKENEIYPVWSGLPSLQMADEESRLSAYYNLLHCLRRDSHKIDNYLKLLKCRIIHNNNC

[2] = molecular target: growth hormone (GH) (human, UniProt P01241 27-217); assay: cell-based or functional assay
[3] = molecular target: B2; assay: co-immunoprecipitation of admixed purified proteins, with cyclosporin A against without
[4] = molecular target: recombinant form of cyclophilin family member CypA (UniProt P62937 1-165, limits assumed); assay: co-immunoprecipitation of admixed recombinant proteins
Chain of recombinant form of cyclophilin family member CypA (P62937 whole entry): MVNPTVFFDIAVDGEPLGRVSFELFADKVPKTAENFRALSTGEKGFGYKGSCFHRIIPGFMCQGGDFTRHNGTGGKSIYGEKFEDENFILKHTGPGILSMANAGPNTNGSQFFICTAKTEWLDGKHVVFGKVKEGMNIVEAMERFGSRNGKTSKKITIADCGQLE

Chain of growth hormone (GH) (P01241 27-217 limits assumed): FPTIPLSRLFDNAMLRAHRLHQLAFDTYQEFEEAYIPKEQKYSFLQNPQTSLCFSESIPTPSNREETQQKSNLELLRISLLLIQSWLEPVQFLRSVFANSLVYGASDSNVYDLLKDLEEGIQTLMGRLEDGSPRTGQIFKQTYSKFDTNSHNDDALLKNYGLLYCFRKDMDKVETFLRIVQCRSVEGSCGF

B1: His-tagged CypB (cyclophilin B, recombinant, V5/His-tagged, from Drosophila S2 cells) (enzyme)
chain: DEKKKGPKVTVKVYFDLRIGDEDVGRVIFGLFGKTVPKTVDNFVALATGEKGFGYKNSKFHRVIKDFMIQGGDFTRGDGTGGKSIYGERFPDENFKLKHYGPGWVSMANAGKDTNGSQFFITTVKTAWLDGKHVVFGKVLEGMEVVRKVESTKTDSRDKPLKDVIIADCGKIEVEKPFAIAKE
notes: also called wild-type CypB; sepharose-conjugated, recombinant CypB; not shown: C-terminal bifunctional V5/His-tag of vector pAc5/V5-HisA
With B1 as the binder, how does the “PRL-driven growth of Nb2 cells (3H-thymidine)” value [1] read?
The value was no more than 8 fold.

What about the GH-driven proliferation [2] of the same binder?
The GH-driven proliferation was 40 fold.

What about the “fold enhancement of the interaction on addition of CsA” value [3] of the same binder?
Its value is roughly 10 fold.

Does B2 bind [4]?
Result: no binding
